How the values were obtained:
[1] = system: Human Gal3 peptides; assay: Gal3 peptide binding ELISA (Example 8); settings: antibody 5 μg/mL
Description: (§1) Gal3 peptide binding activity of additional exemplary anti-Gal3 antibodies was assessed with the same peptides as described in FIG. 18 (SEQ ID NOs: 3-26). Human Gal3 peptides (LifeTein, custom order) and human Gal3 proteins (R&D Systems, 8259-GA; TrueBinding, QCB200349) were diluted in PBS (Corning, 21-030-CM) to concentrations of at least 100 μg/mL (peptides) or 1 μg/mL (proteins), and added to the wells of several 96-well ELISA plates (Thermo Fisher, 44-2404-21). After incubating the plates at 4° C. overnight, the plates were washed three times with PBST (PBS with 0.05% Tween 20 [VWR, 0777]). The plates were then blocked for an hour with 2% BSA (EMD Millipore, 126609) in PBST at room temperature with gentle rocking. Thereafter, the 2% BSA in PBST was discarded and Gal3-binding antibodies (reformatted hIgG4 [S228P]) were diluted in 2% BSA in PBST to concentrations of 5 μg/mL and added to the wells. The plates were incubated for an hour at room temperature with gentle rocking and then washed three times with PBST. Afterwards, Peroxidase AffiniPure F(ab′)2 Fragment Goat Anti-Human IgG (H+L) polyclonal antibody (Jackson ImmunoResearch, 109-036-003), was diluted in 2% BSA in PBST (1:4000) and added to the wells. The plates were incubated for 1 hour at room temperature with gentle rocking and then washed three times with PBST. TMB substrate (Thermo Scientific, 34029) was then added to each well. The reaction was stopped with 1M HCl (JT Baker, 5620-02) and read using a plate reader (Molecular Devices) at absorbance of 450 nm.

[2] = molecular target: T1, human Gal3 (Homo sapiens, UniProt P17931); assay: Epitope binning, sandwich format, SPR Carterra LSA (Example 8); type: binding
T1 construct: 6xHis (linker-spaced) (C); purchased AcroBio (Acro Biosystems) GA3-H5129
T1 sequence (P17931 whole entry): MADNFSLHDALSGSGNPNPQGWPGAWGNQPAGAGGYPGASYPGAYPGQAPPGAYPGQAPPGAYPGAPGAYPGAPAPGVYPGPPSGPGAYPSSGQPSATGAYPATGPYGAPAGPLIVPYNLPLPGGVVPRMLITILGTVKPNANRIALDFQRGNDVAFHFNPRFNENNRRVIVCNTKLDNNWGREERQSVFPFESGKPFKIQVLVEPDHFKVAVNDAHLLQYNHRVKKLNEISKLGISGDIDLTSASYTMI
Description: The epitope binning assay was done in a sandwich format on the high-throughput SPR-based Carterra LSA unit (CarterraBio, Salt Lake City, Utah). First, the purified antibodies were diluted to 10 μg/ml concentration in 10 mM NaOAc (pH 5.0) and then were covalently coupled via amine group to HC200M chip activated by EDC and S-NHS to immobilize antibodies to different positions of a 384-spot array. One hundred thirty-eight binning cycles were run on the array of immobilized antibodies. In each cycle, first, human Gal3 (AcroBio GA3-H5129) was injected over the entire array to bind to different antibodies (primary antibody), followed by one antibody (secondary antibody) selected among the panel of 150 anti-GAL3 antibodies tested. At the end of each cycle, the array was regenerated by 10 mM Glycine (pH 2.0) to remove bound antigen and secondary antibody from the array. The data analysis was done using the Epitope software by CarterraBio.

[3] = molecular target: T2, hGal3 peptide (Homo sapiens, UniProt P17931); assay: Gal3 peptide library binding ELISA (Example 2)
T2 construct: a library of 24 amino acid peptides representing portions of Gal3
Description: To identify the epitopes to which Gal3 antibodies with and without Gal3-INSR blocking activity bound, a library of 24 amino acid peptides representing portions of Gal3, depicted in FIG. 18, was produced and the ability of each peptide to bind Gal3 antibodies was evaluated by ELISA. At least 2 μg/ml of hGal3 peptide in 50 μl of PBS or 0.1 μg/ml of full-length human Gal3 protein (GenScript) and human Galectin-3 protein (Acro Biosystems, GA3-H5129) were diluted in PBS (Corning, 21-030-CM) to concentrations of at least 2 μg/ml or 0.1 μg/ml, respectively, and added to the wells of a 96-well ELISA plate (Thermo Fisher, 44-2404-21). After incubating the plate at 4° C. overnight, the plate was washed three times with PBST (PBS with 0.05% Tween 20 [VWR, 0777]). The plate was then blocked for an hour with 2% BSA (EMD Millipore, 126609) in PBST at room temperature with gentle rocking. Thereafter, the 2% BSA in PBST was discarded and human Galectin-3 hybridoma supernatants or antibodies were diluted in 2% BSA in PBST to concentrations of at least 0.1 μg/ml and added to the wells. The plate was incubated for an hour at room temperature with gentle rocking and then washed three times with PBST. Afterwards, Goat Anti-Mouse IgG-HRP (Jackson ImmunoResearch, 115-036-1461) or Goat Anti-Rat IgG HRP (Abcam, ab205720) diluted in 2% BSA in PBST (1:4000) were added to the wells. The plate was incubated for 30 minutes to 1 hour at room temperature with gentle rocking and then washed three times with PBST. TMB substrate (Thermo Scientific, 34029) was then added to each well. The reaction was stopped with 1M HCl (JT Baker, 5620-02) and read using a plate reader (Molecular Devices) at absorbance of 450 nm.

[4] = molecular target: T3, Human Gal3 peptides (Homo sapiens, UniProt P17931); assay: Gal3 peptide binding ELISA (Example 8); settings: antibody 5 μg/mL
T3 construct: purchased LifeTein custom order
Description: as §1

B1: 847.2B8: anti-Gal3 antibody (antibody, V domains shown)
VH: QVQLKQSGPGLVQPSQSLSITCTVSGFSLINYGVHWVRQSPGKGLEWLGVIWSGGSTDYNAAFISRLSISKDNSKSQVFFKMNSLQADDTAIYYCARIYYYGRGYAMDYWGQGTSVTVSS
VL: QILLSQSPAILSASPGEKVTMTCRASSSVTYMYWYQQKPGSSPQPWIYATSNLASGVPARFSGSGSGTSYSLTISRVEAEDAATYYCQQWSSNPLTFGAGTKLELK
binding to any of the tested Gal3 peptides [1]: not found to bind | binding to hGAL3 when immobilized on HC200M chip [2]: not bind

B2: 847.4D3: anti-Gal3 antibody (antibody, V domains shown)
VH: EVQLVESGGGLVKPGGSLKLSCAASGFTFSSYAMSWVRQTPEKRLEWVASISSGDSPYYPDSVKGRFTISRDNARNILYLQMSSLRSEDTAMYYCTRFTTVVEMDYWGQGTSVTVSS
VL: DVVMTQTPKFLPITAEDRVTITCKASQSVSNEVAWYQQKPGQSPKLLIYYASNRYTGVPDRFTGSGSGTDFTFTIRSVQLEDLAVYFCQQHYSSPWTFGGGTKLEIK
binding to any of the tested Gal3 peptides [1]: not found to bind | binding to hGAL3 when immobilized on HC200M chip [2]: not bind

B3: 2D10.2B2: anti-Gal3 antibody (antibody)
heavy: QVQLQQSGPELVKPGASVKISCKASGYTFTDYYINWVKQRPGQGLEWIGWIYPGSNDTKYNEKFKGKATLTVDTSSSTAYMQLGSLTSEDSAVYFCANYFGCSGWFFDVWGTGTTVTVSSAKTTPPSVYPLAPVCGDTTGSSVTLGCLVKGYFPEPVTLTWNSGSLSSGVHTFPAVLQSDLYTLSSSVTVTSSTWPSQSITCNVAHPASSTKVDKKIEPRGPTIKPCPPCKCPAPNAAGGPSVFIFPPKIKDVLMISLSPIVTCVVVDVSEDDPDVQISWFVNNVEVHTAQTQTHREDYNSTLRVVSALPIQHQDWMSGKEFKCKVNNKDLGAPIERTISKPKGSVRAPQVYVLPPPEEEMTKKQVTLTCMVTDFMPEDIYVEWTNNGKTELNYKNTEPVLDSDGSYFMYSKLRVEKKNWVERNSYSCSVVHEGLHNHHTTKSFSRTPGK
light: DIVMTQAAFSNPVTLGTSASISCRSSKSLLHSDGITYLYWYLQRPGQSPQLLIYRMSNLASGVPDRFSGSGSGTDFTLRISRVEAEDVGVYYCAQMIEFPLTFGAGTILELKRADVAPTVSIFPPSSEQLTSGGASVVCFLNNFYPKDINVKWKIDGSERQNGVLNSWTDQDSKDSTYSMSSTLTLTKDEYERHNSYTCEATHKTSTSPIVKSFNRNEC
modifications: 2D10.2B2 heavy chain peptide sequence; 2D10.2B2 light chain peptide sequence
notes: anti-Gal3 antibody
binding to Gal3 peptide 6 (amino acids 51-70, SEQ ID NO: 8) [3]: bound | binding to Gal3 peptide 6 (SEQ ID NO: 8) [4]: bound

B4: 849.4F12: anti-Gal3 antibody (antibody, V domains shown)
VH: QVQLKESGPGILQPSQTLSLTCSFSGFSLSTFGMGVGWIRQPSGKGLEWLAHIWWDDDKHYNPALKSRLTISKDTSKNQVFLRIANVDTADNATYYCARIDYGDYVGFAYWGQGTLVTVSA
VL: DILLTQSPSSMSVSLGDTVSITCHASQGINSNIGWLQQKPGKSFKGLIYHGTNLEDGVPSRFSGSGSGADYSLTISSLESEDFADYYCVQYDQFPWTFGGGTKLEIK
binding to any of the tested Gal3 peptides [1]: not found to bind | binding to hGAL3 when immobilized on HC200M chip [2]: not bind

B5: 847.11D6: anti-Gal3 antibody (antibody, V domains shown)
VH: EVKLQQSGPELMKPGTSMKISCKASGYSFTGYTMNWVKQSHGKNLEWIGLINPYNGGTNYNQKFRGKATLSVDKSSNTAYMELLSLTSEDSAVYYCARKDDYYGSSPYALDYWGQGTSVTVSS
VL: DIVMTQSPASLAVSLGQRATISCRASESVENHVNSFMHWFQQKPGQPPKLLIYRASNLQSGIPARFSGSGSRTDFTLTINPVEADDVATYYCQQNNEVPYTFGGGTKLEIK
binding to any of the tested Gal3 peptides [1]: not found to bind | epitope bin (mutual competitive binding for Gal3) [2]: CRD

B6: 7D8.2D8: anti-Gal3 antibody (antibody)
heavy: EVQLVESGGGLVKPGGSLKLSCAASGFTFSSYAMSWVRQTPEKRLEWVATISDGGIYTYYPDNVKGRFTISRDNAKNNLFLQMSHLKSEDTAMYYCVRDGGYWGQGTTLTVSSAKTTPPSVYPLAPVCGDTTGSSVTLGCLVKGYFPEPVTLTWNSGSLSSGVHTFPAVLQSDLYTLSSSVTVTSSTWPSQSITCNVAHPASSTKVDKKIEPRGPTIKPCPPCKCPAPNAAGGPSVFIFPPKIKDVLMISLSPIVTCVVVDVSEDDPDVQISWFVNNVEVHTAQTQTHREDYNSTLRVVSALPIQHQDWMSGKEFKCKVNNKDLGAPIERTISKPKGSVRAPQVYVLPPPEEEMTKKQVTLTCMVTDFMPEDIYVEWTNNGKTELNYKNTEPVLDSDGSYFMYSKLRVEKKNWVERNSYSCSVVHEGLHNHHTTKSFSRTPGK
light: DVLMTQTPLSLPVSLGDQASISCRSSQSIVHSNGNTYLEWYLQKPGQSPKLLIYKVSNRFSGVPDRFSGSGSGTDFTLKISRVEAEDLGVYYCFQGSHVPLTFGAGTKLELKRADVAPTVSIFPPSSEQLTSGGASVVCFLNNFYPKDINVKWKIDGSERQNGVLNSWTDQDSKDSTYSMSSTLTLTKDEYERHNSYTCEATHKTSTSPIVKSFNRNEC
modifications: 7D8.2D8 heavy chain peptide sequence; 7D8.2D8 light chain peptide sequence
notes: anti-Gal3 antibody
binding to Gal3 peptide 7 (amino acids 61-80, SEQ ID NO: 9) [3]: bound | binding to Gal3 peptide 2 (SEQ ID NO: 4) [4]: bound | binding to Gal3 peptide 3 (SEQ ID NO: 5) [4]: bound | binding to Gal3 peptide 17 (SEQ ID NO: 19) [4]: bound

B7: 15F10.2D6: anti-Gal3 antibody (antibody)
heavy: EVQLVESGGGLVKPGGSLKLSCAASGFAFSSYAMSWVRQTPEKRLEWVATISDGGVYTYYTDHVKGRFTISRDNAEDNLYLQMSHLKSEDTAMYYCVRDGGYWGQGTTLTVSSAKTTPPSVYPLAPVCGDTTGSSVTLGCLVKGYFPEPVTLTWNSGSLSSGVHTFPAVLQSDLYTLSSSVTVTSSTWPSQSITCNVAHPASSTKVDKKIEPRGPTIKPCPPCKCPAPNAAGGPSVFIFPPKIKDVLMISLSPIVTCVVVDVSEDDPDVQISWFVNNVEVHTAQTQTHREDYNSTLRVVSALPIQHQDWMSGKEFKCKVNNKDLGAPIERTISKPKGSVRAPQVYVLPPPEEEMTKKQVTLTCMVTDFMPEDIYVEWTNNGKTELNYKNTEPVLDSDGSYFMYSKLRVEKKNWVERNSYSCSVVHEGLHNHHTTKSFSRTPGK
light: DVLMTQTPLSLPVSLGDQASISCRSSQSIVHNNGNTYLEWYLQKPGQSPKLLIYKVSNRFSGVPDRFSGSGSGTDFTLKISRVEAEDLGVYYCFQGSHVPLTFGGGTKLELKRADVAPTVSIFPPSSEQLTSGGASVVCFLNNFYPKDINVKWKIDGSERQNGVLNSWTDQDSKDSTYSMSSTLTLTKDEYERHNSYTCEATHKTSTSPIVKSFNRNEC
modifications: 15F10.2D6 heavy chain peptide sequence; 15F10.2D6 light chain peptide sequence
notes: anti-Gal3 antibody
binding to Gal3 peptide 7 (amino acids 61-80, SEQ ID NO: 9) [3]: bound | binding to Gal3 peptide 2 (SEQ ID NO: 4) [4]: bound | binding to Gal3 peptide 3 (SEQ ID NO: 5) [4]: bound | binding to Gal3 peptide 4 (SEQ ID NO: 6) [4]: bound
